In patent publication US20250092426, “CAS ENDONUCLEASES AND RELATED METHODS” (Flagship Pioneering Innovations VII, LLC, published 2025):

Target: T1, CasEnd-29 (synthetic construct)
T1 chain: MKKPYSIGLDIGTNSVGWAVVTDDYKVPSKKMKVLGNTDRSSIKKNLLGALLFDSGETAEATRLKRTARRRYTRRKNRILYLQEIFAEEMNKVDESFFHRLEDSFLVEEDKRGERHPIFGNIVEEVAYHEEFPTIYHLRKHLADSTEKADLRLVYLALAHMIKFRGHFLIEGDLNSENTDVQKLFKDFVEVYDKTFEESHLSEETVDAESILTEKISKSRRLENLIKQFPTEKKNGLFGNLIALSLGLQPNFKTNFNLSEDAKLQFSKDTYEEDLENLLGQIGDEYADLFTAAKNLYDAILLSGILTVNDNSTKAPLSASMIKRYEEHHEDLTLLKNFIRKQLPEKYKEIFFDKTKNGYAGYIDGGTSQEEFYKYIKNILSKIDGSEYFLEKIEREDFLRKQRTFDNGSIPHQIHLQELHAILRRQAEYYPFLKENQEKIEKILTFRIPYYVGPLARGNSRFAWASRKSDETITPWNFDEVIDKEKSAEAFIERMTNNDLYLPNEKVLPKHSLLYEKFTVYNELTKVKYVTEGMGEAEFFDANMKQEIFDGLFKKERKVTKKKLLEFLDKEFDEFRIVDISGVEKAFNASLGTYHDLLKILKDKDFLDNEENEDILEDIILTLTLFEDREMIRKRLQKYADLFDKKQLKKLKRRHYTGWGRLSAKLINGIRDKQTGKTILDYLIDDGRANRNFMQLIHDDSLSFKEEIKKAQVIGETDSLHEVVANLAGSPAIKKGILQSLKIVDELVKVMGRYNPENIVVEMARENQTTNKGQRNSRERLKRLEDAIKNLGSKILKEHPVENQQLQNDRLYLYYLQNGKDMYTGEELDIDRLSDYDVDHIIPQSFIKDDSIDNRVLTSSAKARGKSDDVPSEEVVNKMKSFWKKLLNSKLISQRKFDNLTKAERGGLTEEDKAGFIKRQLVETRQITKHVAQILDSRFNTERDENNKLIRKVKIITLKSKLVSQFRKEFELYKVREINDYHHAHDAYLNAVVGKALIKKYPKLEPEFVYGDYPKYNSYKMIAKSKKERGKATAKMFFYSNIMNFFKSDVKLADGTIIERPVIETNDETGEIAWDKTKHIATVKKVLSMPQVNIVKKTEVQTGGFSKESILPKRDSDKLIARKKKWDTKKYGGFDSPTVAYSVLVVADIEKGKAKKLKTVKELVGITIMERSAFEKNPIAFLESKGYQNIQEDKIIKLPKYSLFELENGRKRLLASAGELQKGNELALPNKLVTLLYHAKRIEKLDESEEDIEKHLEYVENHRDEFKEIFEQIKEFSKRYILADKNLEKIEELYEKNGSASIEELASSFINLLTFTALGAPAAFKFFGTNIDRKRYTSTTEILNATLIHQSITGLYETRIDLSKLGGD
Test: cell_activity; +++; HEK293T; PAM not stated
Procedure, shortened: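 Editing activity was scored as the fraction of GFP+ cells on day 4 by flow cytometry. BFP-expressing HEK293T cells (250,000) received by nucleofection 200 ng plasmid for the RT-Cas fusion protein and 200 ng template RNA plasmid designed to convert BFP to GFP.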

B1: BFP-to-GFP template RNA ; BFP reporter protospacer (ssRNA ; dsDNA)
RNA: GCCGAAGCACUGCACGCCGUGUUUUAGAGCUAGAAAUAGCAAGUUAAAAUAAGGCUAGUCCGUUAUCAACUUGAAAAAGUGGCACCGAGUCGGUGCACCCUGACGUACGGCGUGCAGUGCUU
DNA 1: GCCGAAGCACTGCACGCCGT
DNA 2: ACGGCGTGCAGTGCTTCGGC
Question: B1 was tested. Which activity did it give?
Answer: The activity was ≥ 100 % of reference.
